Reference: ChEMBL document CHEMBL2074302, “ATP-dependent transport for glucuronides in canalicular plasma membrane vesicles” (Biochem Biophys Res Commun, 1991)

Substrate: O=C(O)[C@H]1O[C@@H](Oc2ccc([N+](=O)[O-])cc2)[C@H](O)[C@@H](O)[C@@H]1O
Test: TP_TRANSPORTER: uptake in bile canalicular membrane vesicles from Wistar rat
Assay type: functional, cell membranes, Bile canalicular membrane vesicle

B1: ATP-binding cassette sub-family C member 2 (Rattus norvegicus) (protein)
chain: MDKFCNSTFWDLSLLESPEADLPLCFEQTVLVWIPLGFLWLLAPWQLYSVYRSRTKRSSITKFYLAKQVFVVFLLILAAIDLSLALTEDTGQATVPPVRYTNPILYLCTWLLVLAVQHSRQWCVRKNSWFLSLFWILSVLCGVFQFQTLIRALLKDSKSNMAYSYLFFVSYGFQIVLLILTAFSGPSDSTQTPSVTASFLSSITFSWYDRTVLKGYKHPLTLEDVWDIDEGFKTRSVTSKFEAAMTKDLQKARQAFQRRLQKSQRKPEATLHGLNKKQSQSQDVLVLEEAKKKSEKTTKDYPKSWLIKSLFKTFHVVILKSFILKLIHDLLVFLNPQLLKLLIGFVKSSNSYVWFGYICAILMFAVTLIQSFCLQSYFQHCFVLGMCVRTTVMSSIYKKALTLSNLARKQYTIGETVNLMSVDSQKLMDATNYMQLVWSSVIQITLSIFFLWRELGPSILAGVGVMVLLIPVNGVLATKIRNIQVQNMKNKDKRLKIMNEILSGIKILKYFAWEPSFQEQVQGIRKKELKNLLRFGQLQSLLIFILQITPILVSVVTFSVYVLVDSANVLNAEKAFTSITLFNILRFPLSMLPMVTSSILQASVSVDRLERYLGGDDLDTSAIRRVSNFDKAVKFSEASFTWDPDLEATIQDVNLDIKPGQLVAVVGTVGSGKSSLVSAMLGEMENVHGHITIQGSTAYVPQQSWIQNGTIKDNILFGSEYNEKKYQQVLKACALLPDLEILPGGDMAEIGEKGINLSGGQKQRVSLARAAYQDADIYILDDPLSAVDAHVGKHIFNKVVGPNGLLAGKTRIFVTHGIHFLPQVDEIVVLGKGTILEKGSYRDLLDKKGVFARNWKTFMKHSGPEGEATVNNDSEAEDDDDGLIPTMEEIPEDAASLAMRRENSLRRTLSRSSRSSSRRGKSLKNSLKIKNVNVLKEKEKEVEGQKLIKKEFVETGKVKFSIYLKYLQAVGWWSILFIILFYGLNNVAFIGSNLWLSAWTSDSDNLNGTNNSSSHRDMRIGVFGALGLAQGICLLISTLWSIYACRNASKALHGQLLTNILRAPMRFFDTTPTGRIVNRFSGDISTVDDLLPQTLRSWMMCFFGIAGTLVMICMATPVFAIIIIPLSILYISVQVFYVATSRQLRRLDSVTKSPIYSHFSETVTGLPIIRAFEHQQRFLAWNEKQIDINQKCVFSWITSNRWLAIRLELVGNLVVFCSALLLVIYRKTLTGDVVGFVLSNALNITQTLNWLVRMTSEAETNIVAVERISEYINVENEAPWVTDKRPPADWPRHGEIQFNNYQVRYRPELDLVLKGITCNIKSGEKVGVVGRTGAGKSSLTNCLFRILESAGGQIIIDGIDVASIGLHDLRERLTIIPQDPILFSGSLRMNLDPFNKYSDEEVWRALELAHLRSFVSGLQLGLLSEVTEGGDNLSIGQRQLLCLGRAVLRKSKILVLDEATAAVDLETDSLIQTTIRKEFSQCTVITIAHRLHTIMDSDKIMVLDNGKIVEYGSPEELLSNRGSFYLMAKEAGIENVNHTEL
B1 was tested, and the Km was 20 µM.
